Test results: US20250277054A1 (WUXI BIOLOGICS IRELAND, published 2025)

How the values were obtained:
[1] = biological target: T1, Human PSMA.ECD.His (Acro) (human, UniProt Q04609 44-750); assay: SPR (Biacore 8K), antibody captured by anti-human IgG Fc, PSMA injected, 1:1 model
T1 construct: extracellular domain; Bought protein with His tag; also called human PSMA ECD protein; Human PSMA/FOLH1 protein, His tag
Procedure: (§1) Each antibody was captured on an anti-human IgG Fc antibody immobilized CM5 sensor chip (Cytiva). Human and cynomolgus PSMA at different concentrations were injected over the sensor chip at a flow rate of 30 μL/min for an association phase of 120-180 s, followed by 600-3600 s dissociation. The chip was regenerated by 10 mM glycine (pH 1.5) after each binding cycle.
(§2) The sensorgrams of blank surface and buffer channel were subtracted from the test sensorgrams. The experimental data was fitted by 1:1 binding model. Molecular weight of 81.4 and 82.7 kDa were used to calculate the molar concentration of human and cynomolgus PSMA.

[2] = biological target: T2, Cyno PSMA.ECD.His (Acro) (cynomolgus, UniProt A0A2K5VNZ0 44-750); assay: as above
T2 construct: extracellular domain; Bought protein with His tag; also called cynomolgus PSMA ECD protein; Cynomolgus PSMA/FOLH1 protein, His tag
Procedure: as §1, §2

[3] = biological target: T3, full-length cynomolgus PSMA on Flp-in CHO cells (WBP3xx042-FlpinCHO.cPro1.B7) (cynomolgus, UniProt A0A2K5VNZ0 1-750); assay: flow cytometry on cynomolgus PSMA-expressing CHO cells
T3 construct: whole, on cells; also called Cyno PSMA+ CHO cells; FlpInCHO-cyno PSMA
Procedure: (§3) After washing the cells twice with 1×PBS/1% BSA, Alexa fluor 647-labeled goat anti-human antibody (1:500 diluted with 1×PBS/1% BSA) was added into the cells and incubated in a refrigerator set to 4° C. for 0.5 hour in the dark. After washing the cells twice with 1×PBS/1% BSA, the mean fluorescence intensity (MFI) of the cells was measured by a flow cytometer and analyzed by FLOWJO.

[4] = biological target: T2, Cyno PSMA.ECD.His (Acro); assay: ELISA, cynomolgus PSMA ECD captured by anti-His antibody
Procedure: Plate was pre-coated with 1 μg/mL THETM His Tag Antibody overnight in a refrigerator set to 4° C. After blocking with 200 μL of 1×PBS/2% BSA for 1 hour, the plates were washed with 1×PBST for three times, then 0.5 μg/mL cynomolgus PSMA ECD protein diluted in 1×PBS/2% BSA was added in a volume of 50 μL/well to the plate and incubated for 1 hour at ambient temperature. […] After washing the plates with 1×PBST for three times, 50 μL/well of HRP-labeled goat anti-human IgG antibody (1:5000 diluted in 1×PBS/2% BSA) were added into the plate and incubated for 1 hour at ambient temperature. After washing the plates with 1×PBST for six times, the color was developed by dispensing 50 μL/well of TMB substrate for 4-8 minutes, and then the reaction was stopped by adding 50 μL/well of 2M HCl. The absorbance was read at 450 nm using a microplate reader. EC50 was determined as described above.

[5] = biological target: T4, human PSMA on human prostate cancer cells (LNCaP, C4-2, 22Rv1) (human, UniProt Q04609 1-750); assay: flow cytometry on LNCaP cells
T4 construct: whole, on cells; also called human PSMA-expressing LNCaP cells; C4-2 (PSMA High)
T4 sequence (Q04609 whole entry): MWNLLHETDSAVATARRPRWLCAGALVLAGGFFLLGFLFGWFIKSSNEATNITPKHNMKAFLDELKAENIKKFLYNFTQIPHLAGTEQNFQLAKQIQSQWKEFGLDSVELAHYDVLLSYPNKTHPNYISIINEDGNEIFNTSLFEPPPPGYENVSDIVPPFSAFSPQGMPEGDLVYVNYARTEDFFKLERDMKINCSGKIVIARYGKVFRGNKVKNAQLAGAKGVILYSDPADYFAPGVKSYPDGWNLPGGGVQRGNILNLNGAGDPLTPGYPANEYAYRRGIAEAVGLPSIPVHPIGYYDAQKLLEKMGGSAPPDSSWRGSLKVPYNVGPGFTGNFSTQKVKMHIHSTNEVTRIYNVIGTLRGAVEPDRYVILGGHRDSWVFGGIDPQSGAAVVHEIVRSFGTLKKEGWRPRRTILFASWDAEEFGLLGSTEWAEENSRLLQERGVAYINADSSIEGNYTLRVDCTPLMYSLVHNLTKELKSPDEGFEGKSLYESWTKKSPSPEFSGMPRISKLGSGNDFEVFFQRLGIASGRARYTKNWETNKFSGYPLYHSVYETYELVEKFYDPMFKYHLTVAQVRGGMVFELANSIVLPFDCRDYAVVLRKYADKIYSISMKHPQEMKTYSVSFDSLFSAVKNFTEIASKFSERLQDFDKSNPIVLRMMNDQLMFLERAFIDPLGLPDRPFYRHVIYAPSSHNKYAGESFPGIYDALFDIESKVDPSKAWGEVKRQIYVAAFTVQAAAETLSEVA
Procedure: as §3, with “FLOWJO. The binding EC50 was calculated by GraphPad Prism through plotting antibody concentration (x-axis) versus MFI (y-axis) and analyzing as: Nonlinear regression (curve fit)-log (agonist) vs. response-Variable slope (four parameters).” for “FLOWJO.”

[6] = biological target: T5, Mouse PSMA.ECD.His (Acro) (mouse, UniProt O35409 45-752); assay: ELISA, coated mouse PSMA protein (His tag)
T5 construct: extracellular domain; Bought protein with His tag; also called mouse PSMA protein (His tag); Mouse PSMA/FOLH1 protein, His tag
T5 sequence (O35409 45-752): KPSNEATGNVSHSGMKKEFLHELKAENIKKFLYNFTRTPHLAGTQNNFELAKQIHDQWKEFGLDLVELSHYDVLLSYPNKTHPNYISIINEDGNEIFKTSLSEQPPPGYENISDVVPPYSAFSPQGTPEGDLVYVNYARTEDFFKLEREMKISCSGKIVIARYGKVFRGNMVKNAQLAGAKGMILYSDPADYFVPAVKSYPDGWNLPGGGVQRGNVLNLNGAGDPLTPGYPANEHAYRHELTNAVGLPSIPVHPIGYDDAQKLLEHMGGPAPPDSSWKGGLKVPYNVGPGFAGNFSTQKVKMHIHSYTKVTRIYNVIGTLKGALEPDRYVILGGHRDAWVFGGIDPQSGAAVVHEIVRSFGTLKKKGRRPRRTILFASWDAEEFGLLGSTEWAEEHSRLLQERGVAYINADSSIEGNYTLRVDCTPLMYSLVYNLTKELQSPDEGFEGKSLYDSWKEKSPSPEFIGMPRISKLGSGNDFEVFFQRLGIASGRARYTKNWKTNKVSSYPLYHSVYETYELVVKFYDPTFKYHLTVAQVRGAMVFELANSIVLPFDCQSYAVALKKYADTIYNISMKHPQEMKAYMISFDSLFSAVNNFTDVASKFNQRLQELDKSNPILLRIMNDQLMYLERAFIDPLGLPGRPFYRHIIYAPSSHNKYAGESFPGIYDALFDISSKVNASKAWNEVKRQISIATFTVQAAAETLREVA
Procedure: Briefly, 2 μg/mL mouse PSMA protein (His tag) were coated onto well in ELISA plate in coating buffer for 16 hours in a refrigerator set to 4° C. After washing plate once time with 1×PBST, 200 μL/well 2% BSA were added into wells and incubated for one hour at ambient temperature. […] After washing six times with 1×PBST, 100 μL/well of TMB substrate solution were added into wells and incubated for 5 minutes in dark and then 100 μL/well of 2M HCL were added into wells to stop the reaction. The relative light unit (RLU) were measured at OD450 and OD540 by SPECTRAMAX M5E. EC50 was determined as described above.

[7] = biological target: T1, Human PSMA.ECD.His (Acro); assay: ELISA, human PSMA ECD captured by anti-His antibody
Procedure: Plate was pre-coated with 1 μg/mL THE™ His Tag Antibody overnight in a refrigerator set to 4° C. After blocking with 200 μL of 1×PBS/2% BSA for 1 hour, the plates were washed with 1×PBST for three times, then 0.5 g/mL human PSMA ECD protein diluted in 1×PBS/2% BSA was added in a volume of 50 μL/well to the plate and incubated for 1 hour at ambient temperature. […] After washing the plates with 1×PBST for three times, 50 μL/well of HRP-labeled goat anti-human IgG antibody (1:5000 diluted in 1×PBS/2% BSA) were added into the plate and incubated for 1 hour at ambient temperature. After washing the plates with 1×PBST for six times, the color was developed by dispensing 50 μL/well of TMB substrate for 4-8 minutes, and then the reaction was stopped by adding 50 μL/well of 2M HCl. The absorbance was read at 450 nm using a microplate reader. The binding EC50 was calculated by GraphPad Prism through plotting antibody concentration (x-axis) versus OD450 value (y-axis) and analyzing as: Nonlinear regression (curve fit)-log (agonist) vs. response-Variable slope (four parameters).

T1 sequence (Q04609 44-750): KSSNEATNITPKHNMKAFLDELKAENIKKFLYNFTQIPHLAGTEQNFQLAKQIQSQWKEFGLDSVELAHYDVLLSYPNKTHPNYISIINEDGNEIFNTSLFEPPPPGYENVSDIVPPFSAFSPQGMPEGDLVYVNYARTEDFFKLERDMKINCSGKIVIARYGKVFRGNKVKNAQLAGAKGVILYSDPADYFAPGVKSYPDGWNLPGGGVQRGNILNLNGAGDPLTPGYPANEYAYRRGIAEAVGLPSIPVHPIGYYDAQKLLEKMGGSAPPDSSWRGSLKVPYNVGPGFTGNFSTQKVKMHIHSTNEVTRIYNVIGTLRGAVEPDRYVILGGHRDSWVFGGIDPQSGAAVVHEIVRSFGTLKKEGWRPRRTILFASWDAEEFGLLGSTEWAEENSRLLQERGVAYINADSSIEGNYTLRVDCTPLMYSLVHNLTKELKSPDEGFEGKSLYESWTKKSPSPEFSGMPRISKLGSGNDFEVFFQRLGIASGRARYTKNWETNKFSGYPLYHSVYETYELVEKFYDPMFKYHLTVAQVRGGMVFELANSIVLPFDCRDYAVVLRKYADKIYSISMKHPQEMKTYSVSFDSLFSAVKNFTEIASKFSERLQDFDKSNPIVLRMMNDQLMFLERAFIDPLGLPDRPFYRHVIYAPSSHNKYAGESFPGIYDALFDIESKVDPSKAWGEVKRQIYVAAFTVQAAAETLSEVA

Kd [1]: 29.4 pM | koff [1]: 1.12e-05 s⁻¹ | kon [1]: 381000 M⁻¹ s⁻¹ | Kd [2]: 2840 pM | koff [2]: 0.000584 s⁻¹ | kon [2]: 206000 M⁻¹ s⁻¹ | EC50 [3]: 2250 pM | EC50 [4]: 6 pM | EC50 [5]: 250 pM | EC50 [6]: 26 pM | EC50 [7]: 17 pM
B1: W305042-1.135.2-uIgG1L (antibody, V domains shown)
VH: EVQLVQSGAEVKKPGESLKISCKASGYSFTTYWIGWVRQMPGKGLELMGIIYPYDSDTRYSPSFQGQVTISADKSINTAYLQWSSLKASDTAMYYCARITGGYLFDYWGQGILVTVSS
VL: QSALTQPPSASGSPGQSVTISCTGTSSDVGGYNYVSWYQQHPGKAPKLMIYEVTKRPSGVPDRFSGSKSGNTASLTVSGLQAEDEADYYCTSYAGSNKYVFGTGTKVTVLG
notes: Fully human anti-PSMA monoclonal antibody, human IgG1 with lambda light chain; also called WBP305042; W305042-1.135.2-uIgGIL
